# The nanobody polyreactivity screen of Harvey et al. (2022)
# Experiment: yeast display, Sf9 membrane polyspecificity reagent, FACS + sequencing; frameworks hold sequencing errors
# Procedure, shortened: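 A nanobody's polyreactivity label depends on the gate it was sorted from. Yeast display cells were stained with 10% biotinylated, detergent-solubilized Sf9 membrane reagent for 1 hour at 4 °C, enriched on streptavidin microbeads and sorted by FACS. The low and high (top ~1%) gates were set on anti-HA fluorescence for expression and streptavidin fluorescence for reagent binding.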
row,Sequence,polyreactivity (PSR sort gate)
1,QVQLVESGGGLVQAGGSLRLSCAASGRISSVYAMGWYRQAPGKERELVAAINWRVGSTYYADSVKGRFTISRDNAKNTVYLQMNSLKPEDTAVYYCAVDPVYGIIGSRYDYWGQGTQVTVSS,low polyreactivity
2,QVQLVESGGGLVQAGGSLRLSCAASGRISTYTMGWYRQAPGKERELVATISTHASTNYSDSVKGRFTISRDNAKYTVYLQKYSMKPEDNAVFYCATTVPVILYVTPSTYAVVGYEYWGQGTQVTVSS,low polyreactivity
3,QVQLVESGGGLVQAGGSLRLSCAASGRISWVYAKGWYRQPPGKERELVAAITFSGGSTYYADSVKGRFTISSDNEKNTVYLQMNSLKPEDTAVYYCAADVLAIYSHRYYRYDSWGQGTQVTVSS,high polyreactivity
4,QVQLVESGGGLVQAGGSLRLSCAASGRISYYYMGWYRQAPGKERELVAAISWNGGRTYYADSVKGRFTISRDNAKNTVYLQMNSLKPEDTAVYYCAAYTYSFRANHDYWGQGTQVTVSS,high polyreactivity
5,QVQLVESGGGLVQAGGSLRLSCAASGRITQYTMGWYRQAPGKERELVASIRKSGSTHYADSVKGRFTISRDNAKNTVYLQMNSLKPEDTAVYYCAARTYNPLTGYGYWGQGTQVTVSS,high polyreactivity
6,QVQLVESGGGLVQAGGSLRLSCAASGRIVGAYAMGWYRQAPGKERELVAAITSAGSTHYADSVKGRFTISRDNAKNTVYLQMNSLKPEDSAVYYCAADGIARAYVLFYAYDFLYDYWGQGTQVTVSS,low polyreactivity
7,QVQLVESGGGLVQAGGSLRLSCAASGRIVGLYAKGWYRQAPGKERELVATITRRAGSTYYADSVKGRFTISRDYAKNTVYLLMNSLKPEDTAVYYCAASALRFNSRFSHWYNYWGQGTQVTVSS,high polyreactivity
8,QVQLVESGGGLVQAGGSLRLSCAASGRIVKANAMGWYRQAPGKERELVAAIRESGGTTYYADSVKGRFTISRDNATNTVYLQMNSLKPEDTAVYYCAAAYRDTQYNYYYWGQGTQVTVSS,high polyreactivity
9,QVQLVESGGGLVQAGGSLRLSCAASGRIVKYAMGWYRQAPGKERELVAAISGSGGTTYYADSVKGRFTISRDNAKNTVYLQMNSLKPEDTAVYYCAASRPRPPSSRRMDYWGQGTQVTVSS,high polyreactivity
10,QVQLVESGGGLVQAGGSLRLSCAASGRIVKYAMGWYRQAPGKERELVAAISSSGGTTYYADSVKGRFTISRDNAKNTVYLQMISLKPEDTAVYYCAAPGTYTSRGSDYWGQGTQVTVSS,high polyreactivity
11,QVQLVESGGGLVQAGGSLRLSCAASGRIVPYAMGWYRQAPGKERELVARINFNGGSTYYADSVKGRFTISRDNAKNTVYLQMNSLKPEDTAVYDCAARVYRYRYSKYDYWGQGTQVTVSS,high polyreactivity
12,QVQLVESGGGLVQAGGSLRLSCAASGRIVRRYARGWYIQAPGKERELVAAITNNGGNTYYADSVKGRFTISRDNAKNTVYLQMNSLKPEDTAVYYCKAGYYWGQGTQVTVSS,high polyreactivity
13,QVQLVESGGGLVQAGGSLRLSCAASGRIVYSNAMVWYRQAPGKERELVASITRGSRTNYADSVKGRFTISRDNAKHSVYLPMNSLKPEDTAVYYCARRYLLKPGFGRFYYWGQGNQVTVSS,high polyreactivity
14,QVQLVESGGGLVQAGGSLRLSCAASGRIWVNAMGCYRQAPWKESELVAAISTSSASTYYADSVKGRFTISRDNAKNTVYLEMNSLKPEDTAVYYCAARWARQLGSGRRGDYWGQGTQVTVSS,high polyreactivity
15,QVQLVESGGGLVQAGGSLRLSCAASGRIWVYYTMGWYRQAPGKERELVAAITGSGGSTYYADSVTGRFTISRDNATNTVYLQMNSLKPEDTAVYYCAVYDSYRKFKYWGQGTQVTVSS,high polyreactivity
16,QVQLVESGGGLVQAGGSLRLSCAASGRIWYYAMGWYRQAPGKERELVAAISFSGGTTYYADSVKGRFTISRDNAKNTVYFPMNSLKPEDTGVYYCNKVSVGRYKRDYWGQGTQVTVSS,high polyreactivity
17,QVQLVESGGGLVQAGGSLRLSCAASGRIYASYVMGWYRQAPGKERELVAAISYGGSRTYYADSVKGRFTISRDNAKNTVYLQMNSLKPEDTAVYYCAAKKYTNRGYYYWGQGTQVTVSS,high polyreactivity
18,QVQLVESGGGLVQAGGSLRLSCAASGRIYAVNAMRWYRQAPGKERELVARIRRIGGSTYYADSVKGRFTISRDNAKNTVYLQMNSMKPEDTAVYYCAKTLGRRHPGYDYWGQGTQVTVSS,high polyreactivity
19,QVQLVESGGGLVQAGGSLRLSCAASGRIYDDYAMGWYRQAPGKERELVAAISSSGGSTYYADSVKGRFTISRDNAKNTVYLQMNSLKPEDTAVYYCARYPPGRRRYEYWGQGTQVTVSS,high polyreactivity
20,QVQLVESGGGLVQAGGSLRLSCAASGRIYGDNTMGWYRQAPGKEREFVAAISFIGGSTYYADSVKGRFTISRDNAKNTVYLQMNSLKPEDTAVYYCATVERWTYWFVGYDYWGQGTQVTGSS,high polyreactivity
21,QVQLVESGGGLVQAGGSLRLSCAASGRIYGYAMGWYRQAPGKESELVAVITTSGGRTYYADSVKGRFTISRDNAKNTVYLQMNSLKPEDNAVYYCNVGKPSRRSYGTLIPAALYDSWGQGTQVTVSS,high polyreactivity
22,QVQLVESGGGLVQAGGSLRLSCAASGRIYLNAMGWYRQAPGKERELVAAISSRGASTYYADSVKGRFTISRDNAKNTVYLQMKSLKPEDTAVFYCAARLRNIYYFRMGYWGQGTQVTVSS,high polyreactivity

row,Sequence,polyreactivity (PSR sort gate)
1,QVQLVESGGGLVQAGGSLRLSCAASGRIYPGYTMGWYRQAPGKERELVAGISRSGGRTYYADSVKGRFTISRDNAKNTVYLQMNSLKPEDTAVYYCAADGYPGRRYTGMDYWGQGTQVTVSS,high polyreactivity
2,QVQLVESGGGLVQAGGSLRLSCAASGRIYPVYAMGWYRPAPGKERELVAAITSGVSTNYADSVKGRFTISRDNAKNTVYLQMNSLKPEDTAVYYCNKDYTTYPYYEDGYWGLGTQVTVSS,low polyreactivity
3,QVQLVESGGGLVQAGGSLRLSCAASGRIYRGNTKGWYRQAPGKERELVAAITRGGSTSYADSVKGRFTISRDNAKNTVYLQMMSLKPEDTAVYYCATRTHGEGTRRDSWGQGTQVTVSS,low polyreactivity
4,QVQLVESGGGLVQAGGSLRLSCAASGRIYRSYAMGWYRQAPGKERDLVAAITKSGGGTYYADTVKGRYTISRVNAKNTVYLQMNSLNPEDTAVYYCGARGHGGYYYWGQGTQVTVSS,high polyreactivity
5,QVQLVESGGGLVQAGGSLRLSCAASGRIYRYYAMGWYRQAPGKERELVAAITRSGGTTYYADSVKGRFTISRDNAKYTVYLQMNSLKPEDTAVYYCNAGVGQKYDYWGQVTQVTVSS,high polyreactivity
6,QVQLVESGGGLVQAGGSLRLSCAASGRIYSTNAMRWYRQAPGKEREFVAAIYWIGGSTYYADSVKGRFTISRDNAKNTVYLQMNSLKPEDTAVYYCAAGVYDDYPWSYDIFNLYDYWGQGTQVTVSS,low polyreactivity
7,QVQLVESGGGLVQAGGSLRLSCAASGRIYTYYTMGWYRQAPGKERELVAAITVRGGRTYYADSVKGRFTISRDNAKNTVYLQMNSLKPEDTAVYYCAARGLVRSYDYWGQVTQVTVSS,high polyreactivity
8,QVQLVESGGGLVQAGGSLRLSCAASGRIYVYAMGWYRQAPGKEREMVAAITASDGSTYYADSVKGRFTISRDNAKNTVYLQMNSLKPEDTAVYYCAADIYEHNYYGYYYWGQGTKVTVSS,high polyreactivity
9,QVQLVESGGGLVQAGGSLRLSCAASGRIYWNTKGWYRQAPGKERELVASISTGGGRTYYADSVKGRFTISRDNAKNTVYLQMNSLKPEDTAVYYCAARRGAGYSRFNYWGQGTQVTVSS,high polyreactivity
10,QVQLVESGGGLVQAGGSLRLSCAASGRIYYSNVMGWYRQAPGTERELVAAISGRTGGTYYADSVKGRFTISRDNAKNTVYLQMNSLKPEDTAVYYCAARVIYYYGYCTYDYWGQGTQVTVSS,low polyreactivity
11,QVQLVESGGGLVQAGGSLRLSCAASGRIYYTYAMGWYRQAPGKERELVAAIRRGGSTNYADSVKGRFTISRDNAKNTVYLQMNSLKPEDTAVYYCAADVYRASFWYGYWGQGTQVTVSS,low polyreactivity
12,QVQLVESGGGLVQAGGSLRLSCAASGRLFSYNAMGWYSQAPGKERELVAGITYGSTYYADSVKGRFRISRDNAKNTVYLQMNSLKPEDTAVYYSAADQSYTSVHGYRSDTLMDYWGQGTQGTVSS,low polyreactivity
13,QVQLVESGGGLVQAGGSLRLSCAASGRLFTIYAMGGYTQAPGKERELVATISRRGGSTYYADSVKGRFTISRDNAKNTVYLQMNSLKPEDTAVYYCAKRQRSKAAVAGYVDATGEMDYWGQGTQVTVSS,high polyreactivity
14,QVQLVESGGGLVQAGGSLRLSCAASGRLFTYYVMGWYRQAPGKERELVAAISYGGGSTYYADSVKGRFTISRDNAKNTVYLQMNSLKPEDTAVYYCAAEDGYRKMDYWGQGTQVTVSS,low polyreactivity
15,QVQLVESGGGLVQAGGSLRLSCAASGRLFVYNAMGWYRQAPGKERELVAAISWRGGSTYYADSVKGRFTISRDNAKNTVYLQMYSLKPEDTAVYDCAAQRTARQFDYWGQGTQVTVSS,high polyreactivity
16,QVQLVESGGGLVQAGGSLRLSCAASGRNFARYVMGWYSQAPGKERELVASISNSGGSTYYADSVKGRFTISRDNAKNTVYLQMNSLKPEDTAVYYCARRYYYYTSYRYDYWGQGTQVTVSS,high polyreactivity
17,QVQLVESGGGLVQAGGSLRLSCAASGRNFDDYAMGWYRQAPGKERELVAAISDSGGTTYYADSVKGRFTISRDNAKNTVYLQMNSLKPEDTAVYYCAKRYYGPHYWGQGTQVTVSS,low polyreactivity
18,QVQLVESGGGLVQAGGSLRLSCAASGRNFEKNAMGWSRQAPGKERELVASIDFRGGRTYADSVKGRFTISRDNAKNTVYLQMISLKPEDTAVYYCAKRQVGRKYVRYEYDSWGHGTQVTVSS,low polyreactivity
19,QVQLVESGGGLVQAGGSLRLSCAASGRNFGINAMVWFRPAPGKERELVAAISRSGGRTYYADSVKGRFTISRDNAKNTVYLQMISLKPEDTAVYYCAKVPTYWYYRYYYWGQGTEVTVSS,high polyreactivity
20,QVQLVESGGGLVQAGGSLRLSCAASGRNFGVYTMGWYRQAPGKERELVAAITSGGNTNYADSVKGRFTISRDNAKNNVYLQMNCLKPEDTAVYYCAARYVGNFYYPGHNYWGQVTQVTVSS,low polyreactivity
21,QVQLVESGGGLVQAGGSLRLSCAASGRNFGYYTMGWYRQAPGKERELVARINYIGSSTYYADSVKGRFTISRDNAKNTVFLLMNSLKPEDTAVYYCAAETYYFGYGYWGQGTQVTVSS,high polyreactivity
